Variants at the floor of the assay were thinned out.
What was measured:
biotinyl-Phe-oxazolone = test: self-aminoacylation, catalytic enhancement (BFO) (fold over background); higher = more active; k-Seq, kA / k0A0; sequences stand for … in GGGAAUGGAUCCACAUCUACGAAUUC…UUCACUGCAGACUUGACGAAGCUG
Procedure, shortened: (§1)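 Mutagenized RNA pools (0.43 μM; 21-nt variable region) were treated with 2–1250 μM of each biotinyl-aminoacyl-oxazolone. Conditions were 50 μL HEPES/NaCl/KCl/MgCl2/CaCl2 buffer, 5% acetonitrile, pH 6.9–7.0, room temperature, 90 minutes. Catalytic enhancement, the median kA relative to the uncatalyzed rate, was derived from streptavidin capture, qPCR and Illumina sequencing.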

biotinyl-Ile-oxazolone = test: self-aminoacylation, catalytic enhancement (BIO) (fold over background); higher = more active; k-Seq, kA / k0A0; sequences stand for … in GGGAAUGGAUCCACAUCUACGAAUUC…UUCACUGCAGACUUGACGAAGCUG
Procedure, shortened: as §1

biotinyl-Met-oxazolone = test: self-aminoacylation, catalytic enhancement (BMO) (fold over background); higher = more active; k-Seq, kA / k0A0; sequences stand for … in GGGAAUGGAUCCACAUCUACGAAUUC…UUCACUGCAGACUUGACGAAGCUG
Procedure, shortened: as §1

biotinyl-Val-oxazolone = test: self-aminoacylation, catalytic enhancement (BVO) (fold over background); higher = more active; k-Seq, kA / k0A0; sequences stand for … in GGGAAUGGAUCCACAUCUACGAAUUC…UUCACUGCAGACUUGACGAAGCUG
Procedure, shortened: as §1

biotinyl-Leu-oxazolone = test: self-aminoacylation, catalytic enhancement (BLO) (fold over background); higher = more active; k-Seq, kA / k0A0; sequences stand for … in GGGAAUGGAUCCACAUCUACGAAUUC…UUCACUGCAGACUUGACGAAGCUG
Procedure, shortened: as §1

biotinyl-Trp-oxazolone = test: self-aminoacylation, catalytic enhancement (BWO) (fold over background); higher = more active; k-Seq, kA / k0A0; sequences stand for … in GGGAAUGGAUCCACAUCUACGAAUUC…UUCACUGCAGACUUGACGAAGCUG
Procedure, shortened: as §1

Sequence	self-aminoacylation (biotinyl-Phe-oxazolone)	self-aminoacylation (biotinyl-Ile-oxazolone)	self-aminoacylation (biotinyl-Met-oxazolone)	self-aminoacylation (biotinyl-Val-oxazolone)	self-aminoacylation (biotinyl-Leu-oxazolone)	self-aminoacylation (biotinyl-Trp-oxazolone)
AAGUUUUCUGAUAGUCGCAAG [Fam3.1 aminoacylation ribozyme variant]	2.8	1.77	1.56	1.38	1.55	1.81
AAGUUUUGUAAUAGUCGCAAG [Fam3.1 aminoacylation ribozyme variant]	2.1	1.64	1.53	1.55	1.5	1.84
AAUAACCUAGGUCAUCGGGUG [Fam2.2 aminoacylation ribozyme variant]	22.8	3.18	4.25	3.3	4.57	5.23
AAUACACUGGUCAUCGAGUGA [Fam2.1 aminoacylation ribozyme variant]	8.92	3.65	4.13	3.4	4.56	6.47
AAUACCCUGGACAUCGAGUGA [Fam2.1 aminoacylation ribozyme variant]	10.5	2.25	3.95	2.25	4.14	5.44
AAUACCCUGGCCAUCGAGUGA [Fam2.1 aminoacylation ribozyme variant]	2.33	1.85	2.08	1.64	2.71	3.4
AAUACCCUGGUAAUCGAGUGA [Fam2.1 aminoacylation ribozyme variant]	38.5	3.96	7.38	3.37	8.53	10.3
AAUACCCUGGUCAACGAGUGA [Fam2.1 aminoacylation ribozyme variant]	11.1	2.88	4.19	2.53	4.32	5.89
AAUACCCUGGUCAUCCAGUGA [Fam2.1 aminoacylation ribozyme variant]	10.6	3.01	5.25	2.88	4.96	5.84
AAUACCCUGGUCAUCGAGGGA [Fam2.1 aminoacylation ribozyme variant]	1.13	1.51	1.18	1.94	1.58	1.85
AAUACCCUGGUGAUCGAGUGA [Fam2.1 aminoacylation ribozyme variant]	13.1	3.23	5.35	3.02	6.6	6.66
AAUACCGUGGUCAUCGAGUGA [Fam2.1 aminoacylation ribozyme variant]	26.4	2.89	5.12	2.81	4.83	5.14
AAUCACAUAGGUCAUCGGGUG [Fam2.2 aminoacylation ribozyme variant]	49.2	4.88	7.73	4.18	7.16	6.45
AAUCACCUAGAUCAUCGGGUG [Fam2.2 aminoacylation ribozyme variant]	9.55	2.75	2.41	2.68	2.55	3.99
AAUCACCUAGGCCAUCGGGUG [Fam2.2 aminoacylation ribozyme variant]	25.5	2.88	3	3.86	3.01	5.04
AAUCACCUAGGGCAUCGGGUG [Fam2.2 aminoacylation ribozyme variant]	28	3.31	3.75	3.49	3.93	5.34
AAUCACCUAGGUAAUCGGGUG [Fam2.2 aminoacylation ribozyme variant]	14.1	2.64	2.67	2.08	3.17	4.18
AAUCACCUAGGUCAGCGGGUG [Fam2.2 aminoacylation ribozyme variant]	28.9	4.05	4.61	2.9	4.16	4.58
AAUCACCUAGGUCAUCGGGAG [Fam2.2 aminoacylation ribozyme variant]	1.94	1.67	1.89	2.17	1.51	1.55
AAUCACCUAGGUCAUCGGGUG [Fam2.2 aminoacylation ribozyme variant]	42.9	5.67	7.92	5.65	9.15	8.58
AAUCACCUAGGUCAUCGGGUU [Fam2.2 aminoacylation ribozyme variant]	11.5	4.1	5.39	3.65	6.71	5.39
AAUCACCUAGGUCAUCGGUUG [Fam2.2 aminoacylation ribozyme variant]	5.05	1.44	1.74	1.29	1.66	1.69
AAUCACCUAGGUCUUCGGGUG [Fam2.2 aminoacylation ribozyme variant]	46.9	3.79	4.54	3.98	5.09	6.75
AAUCACCUAUGUCAUCGGGUG [Fam2.2 aminoacylation ribozyme variant]	23.4	3.28	4.23	3.29	4.9	6.14
AAUCCCCUGGUCAUCGAGUGA [Fam2.1 aminoacylation ribozyme variant]	34.4	3.35	6.29	3.96	6.5	5.97
AAUCGCCUAGGUCAUCGGGUG [Fam2.2 aminoacylation ribozyme variant]	72.9	6.97	10.4	8.02	9.78	10

Sequence	self-aminoacylation (biotinyl-Phe-oxazolone)	self-aminoacylation (biotinyl-Ile-oxazolone)	self-aminoacylation (biotinyl-Met-oxazolone)	self-aminoacylation (biotinyl-Val-oxazolone)	self-aminoacylation (biotinyl-Leu-oxazolone)	self-aminoacylation (biotinyl-Trp-oxazolone)
AAUGACCUAGGUCAUCGGGUG [Fam2.2 aminoacylation ribozyme variant]	26.1	3.66	4.56	3.56	4.85	5.22
AAUUUCGCUAAUAGUCGCAAG [Fam3.1 aminoacylation ribozyme variant]	2.64	2.19	1.94	1.88	2.24	1.9
AAUUUUGCAAAUAGUCGCAAG [Fam3.1 aminoacylation ribozyme variant]	2.73	2.33	2.02	2.31	1.51	2.48
AAUUUUGCUAACAGUCGCAAG [Fam3.1 aminoacylation ribozyme variant]	3.07	1.88	1.28	1.58	1.87	1.88
AAUUUUGCUAAUACUCGCAAG [Fam3.1 aminoacylation ribozyme variant]	1.5	1.5	1.01	1.35	1.47	1.03
AAUUUUGCUAAUAGUCGCAAA [Fam3.1 aminoacylation ribozyme variant]	2.06	3	3.1	2.15	2.22	2.42
AAUUUUGCUAAUAGUCGCAAU [Fam3.1 aminoacylation ribozyme variant]	2.09	2.95	2.88	2.13	2.91	2.09
ACACACUACAAGCAAUCGGUC [Fam1B.1 aminoacylation ribozyme variant]	1.65	1.2	0.815	1.24	0.855	1.02
ACACACUUCAAGCAAUCGGUU [Fam1B.1 aminoacylation ribozyme variant]	4.53	2.21	2.44	2.05	2.26	4.24
ACACACUUCAAGCACUCGGUC [Fam1B.1 aminoacylation ribozyme variant]	1.49	1.44	1.42	1.3	1.62	1.77
ACACACUUCAGGCAAUCGGUC [Fam1B.1 aminoacylation ribozyme variant]	1.75	1.56	1.38	1.44	1.42	1.84
ACACACUUCCAGCAAUCGGUC [Fam1B.1 aminoacylation ribozyme variant]	1.19	1.47	1.31	1.3	1.3	1.6
ACACAUUUCAAGCAAUCGGUC [Fam1B.1 aminoacylation ribozyme variant]	2.41	1.2	1.12	1.41	1.12	1.86
ACACUUCAAACAAUCGGUCUG [Fam1A.1 aminoacylation ribozyme variant]	75.9	1.7	1.57	1.43	2.16	33.3
ACGUUUCCUAAUAGUCGCAAG [Fam3.1 aminoacylation ribozyme variant]	1.35	1.61	1.33	1.21	1.08	1.3
ACGUUUGCUAAGAGUCGCAAG [Fam3.1 aminoacylation ribozyme variant]	2.95	1.35	1.12	1.44	1.65	1.44
ACGUUUGCUAAUAGUCGCAAC [Fam3.1 aminoacylation ribozyme variant]	1.42	1.36	0.972	1.18	1.43	0.859
ACGUUUGCUCAUAGUCGCAAG [Fam3.1 aminoacylation ribozyme variant]	2.58	1.89	1.88	1.91	2.49	3.57
ACGUUUGCUUAUAGUCGCAAG [Fam3.1 aminoacylation ribozyme variant]	1.76	1.32	1.68	1.46	1.67	1.75
ACGUUUGGUAAUAGUCGCAAG [Fam3.1 aminoacylation ribozyme variant]	2.95	1.75	1.54	1.55	2.1	2.45
ACGUUUGUUAAUAGUCGCAAG [Fam3.1 aminoacylation ribozyme variant]	3.28	1.85	2.07	1.69	2.19	1.71
ACUAACCUAGGUCAUCGGGUG [Fam2.2 aminoacylation ribozyme variant]	40.7	5.7	6.8	3.36	8.64	6.91
ACUACCCAGGUCAUCGAGUGA [Fam2.1 aminoacylation ribozyme variant]	23.2	3.72	5.02	3.89	6.28	5.32
ACUACCCGGGUCAUCGAGUGA [Fam2.1 aminoacylation ribozyme variant]	43.7	4.64	7.84	4.17	8.28	8.27
ACUACCCUGGUCACCGAGUGA [Fam2.1 aminoacylation ribozyme variant]	46.5	4.67	9.06	4.77	11.2	9.34

— the supplement of paper PMC9233669
